Assay: Pharmacokinetic study of intranasal tissue kallikrein (125I-KLK1 tissue concentrations by gamma counting)
Assay type: in vivo
Conditions: rat
Method: The purpose of this study was to quantify the amount of tissue kallikrein (KLK1) reaching the central nervous system and peripheral tissues after intranasal administration to anesthetized rats. At 30 min after KLK1 administration, animals were transcardially perfused with ice-cold saline followed by paraformaldehyde fixative and tissues were dissected. The amount of radiolabeled KLK1 in each tissue sample was quantified by gamma counting and tissue concentrations were calculated using tissue weight and gamma counting of standards of the dosing solutions
Adult male Sprague Dawley rats (n=10, mean 335.4 g±4.57 g SE) were used for this study. Animals were group housed in the Regions Hospital Animal Care Facility with free access to food and water. Animals were kept on a 12 h light cycle. All experimental procedures were approved by the Animal Care and Use Committee at Regions Hospital under IACUC protocol number 08-022.
Tissue kallikrein was sent to Perkin-Elmer for ^125I-labelling (Quote NEX-084, lot C1541583). Non-labeled KLK1 from Sigma (cat#K3627-1KU, lot 018K1441) was also used. Non-labeled KLK1 was dissolved in 1×PBS (10×PBS, Sigma, cat #P5493, lot 027K8405 diluted in sterile water). The average dose was 48.1 μL, 75 μCi, and 2.6 mg.
• a. Prior to anesthesia, each rat was weighed. • b. An anesthesia cocktail was prepared and full, half, and quarter anesthesia doses were calculated according to the animal's weight with a full dose containing 30 mg/kg ketamine, 6 mg/kg xylazine, and 1 mg/kg acepromazine. • c. A 1-cc syringe fitted with a 25 G or 27 G, ½ inch needle was assembled and a full dose was drawn into the syringe for injection. • d. Rats were restrained in a towel as follows. Rats were placed ventral side down in the middle of a hand towel. The towel was then wrapped around the head and shoulders to restrain. Wrapped animals remained ventral side down while the left hind leg was located. • e. The left hind leg was drawn to the side and the needle was inserted just beneath the skin (subcutaneous) above the thigh. After ensuring that the needle was placed subcutaneously (and not intramuscularly), full doses were injected. Rats were placed in holding cages and the injection time noted. Animals should be under within 5 min. • f. Anesthesia was monitored throughout the procedures by assessing reflexes using pinching of the hind paw or tail. If a reflex was present, a half or quarter dose booster was administered as necessary. • g. During drug administration, animals received a half dose booster roughly 20-25 min after initial dose. Intranasal Delivery of ^125I-KLK1 • a. Anesthetized rats were placed on their backs on a heating pad in a metal surgical tray. The heating pad was connected to a thermostat and was automatically regulated to maintain a 37° C. temperature based on continuous measurement from a rectal probe. • b. A 2″×2″ gauze pad was rolled tightly into a pillow, taped together, and under the neck to maintain a correct neck position horizontal with the counter. • c. A lead impregnated shield was placed between the surgical tray and the experimenter for protection against radiation. The dose solution, pipette, pipette tips, and waste receptacle were arranged behind the shield for easy access. • d. A 6 μL drop was loaded into the pipette behind the shield. • e. A cotton swab covered in parafilm was used to occlude one naris completely (the flat part of the swab was pushed gently against the naris to prevent airflow), while the 6 μL drop was expelled slowly from the pipette (held at a 45° angle from the rat's midline), forming a drop on the pipette tip. The drop was lowered onto the open naris to be inhaled. • f. After two minutes, the alternate naris was occluded and a 6 μL drop was administered in the same fashion. • g. A drop was administered as described above every two minutes to alternating nares until a total of 8 drops was delivered (4 to each naris) over 14 min. • h. […]

[1] = 30 min. end point, Avg, outliers removed

B1: tissue kallikrein: serine protease that cleaves kininogen into kallidin; polypeptide SEQ ID NO:1 (Sus scrofa kallikrein 1), KLK1 from Sigma (protein, listed as Sus scrofa)
chain: MWSLVMRLALSLAGTGAAPPIQSRIIGGRECEKDSHPWQVAIYHYSSFQCGGVLVDPKWVLTAAHCKNDNYQVWLGRHNLFENEVTAQFFGVTADFPHPGFNLSLLKNHTKADGKDYSHDLMLLRLQSPAKITDAVKVLELPTQEPELGSTCQASGWGSIEPGPDDFEFPDEIQCVELTLLQNTFCADAHPDKVTESMLCAGYLPGGKDTCMGDSGGPLICNGMWQGITSWGHTPCGSANKPSIYTKLIFYLDWINDTITENP
modifications: 125I label in one form
reaching target regions (frontal cortex, temporal cortex, hippocampus, cerebral blood vessel walls, cervical nodes) (30 min): effectively reached target regions | concentration in Amygdala [1]: 16.2 nM | concentration in Anterior Olfactory Nucleus [1]: 26.8 nM | concentration in Anterior Trigeminal Nerve [1]: 109.1 nM | concentration in Axillary Nodes (2) [1]: 42.3 nM | concentration in Blood Sample [1]: 268.4 nM | concentration in Carotid Artery [1]: 113.4 nM | concentration in Cerebellum [1]: 10.9 nM | concentration in Cervical Nodes (2) [1]: 122.3 nM | concentration in Circle of Willis & Basilar Artery [1]: 103.3 nM | concentration in Dorsal Dura [1]: 132.9 nM | concentration in Esophagus [1]: 85.2 nM | concentration in Extra Cortex [1]: 13.0 nM | concentration in Extra Slice #1 [1]: 23.6 nM | concentration in Extra Slice #2 [1]: 16.7 nM | concentration in Extra Slice #3 [1]: 13.9 nM | concentration in Extra Slice #4 [1]: 12.0 nM | concentration in Extra Slice #5 [1]: 11.8 nM | concentration in Extra Slice #6 [1]: 11.3 nM | concentration in Frontal Cortex [1]: 23.9 nM | concentration in Heart [1]: 22.6 nM | concentration in Hippocampus [1]: 10.7 nM | concentration in Hypothalamus [1]: 22.2 nM | concentration in Kidney (L, tip) [1]: 134.8 nM | concentration in Liver (R, superficial lobe) [1]: 25.7 nM | concentration in Lower Cervical Spinal Cord [1]: 7.1 nM | concentration in Lumbar Spinal Cord [1]: 4.9 nM | concentration in Lung (R, top lobe) [1]: 37.2 nM | concentration in Medulla [1]: 14.9 nM | concentration in Midbrain [1]: 12.5 nM | concentration in Muscle (R, deltoid) [1]: 21.4 nM | concentration in Occipital Cortex [1]: 12.8 nM | concentration in Olfactory Bulbs [1]: 107.1 nM | concentration in Olfactory Epithelium [1]: 24,762.6 nM | concentration in Optic Chiasm [1]: 29.4 nM | concentration in Parietal Cortex [1]: 12.1 nM | concentration in Pituitary [1]: 60.1 nM | concentration in Pons [1]: 14.4 nM | concentration in Posterior Trigeminal Nerve [1]: 51.8 nM | concentration in Renal artery (L) [1]: 58.1 nM | concentration in Respiratory Epithelium [1]: 75,970.0 nM | concentration in Septal Nucleus [1]: 12.1 nM | concentration in Spinal Dura [1]: 26.6 nM | concentration in Spleen (tip) [1]: 72.6 nM | concentration in Striatum [1]: 9.8 nM | concentration in Superficial Nodes (2) [1]: 63.1 nM | concentration in Temporal Cortex [1]: 12.4 nM | concentration in Thalamus [1]: 10.3 nM | concentration in Thoracic Spinal Cord [1]: 5.2 nM | concentration in Thyroid [1]: 1970.6 nM | concentration in Trachea [1]: 77.7 nM | concentration in Upper Cervical Spinal Cord [1]: 23.4 nM | concentration in Urine [1]: 130.7 nM
